The target of this assay is HLA-A*24 (human). Briefly: UV-exchange ELISA, exchange yield grade. (In an ELISA, binding on a coated surface is turned into a signal by an enzyme label.)
For the molecule VYFKAGLDVF [… (SEQ ID NO: 177)], the peptide exchange yield lay within 50 to 75%.

Turning to SYSEIKDFL [… (SEQ ID NO: 220)], the peptide exchange yield is more than 75%.

As to VFIHHLPQF [… (SEQ ID NO: 200)], the peptide exchange yield lay in the range of 50 to 75%.

NYITGKGDVF [… (SEQ ID NO: 169)] had a peptide exchange yield of 50 to 75%.

Consider AYIKGGWIL [… (SEQ ID NO: 195)], for which the peptide exchange yield lay within 50 to 75%.

As for VYEKNGYIYF [… (SEQ ID NO: 174)], the peptide exchange yield is 50 to 75%.

Molecule IYKWITDNF [… (SEQ ID NO: 155)] returned a peptide exchange yield of more than 75%.

The molecule NYLDVATFL [… (SEQ ID NO: 206)] gave a peptide exchange yield of more than 75%.

FYTLPFHLI [… (SEQ ID NO: 166)] showed a peptide exchange yield of more than 75%.

RYLEAALRL [… (SEQ ID NO: 168)] had a peptide exchange yield of 50 to 75%.

As to LYSPVPFTL [… (SEQ ID NO: 175)], the peptide exchange yield lay within 50 to 75%.

Regarding QYLVHVNDL [… (SEQ ID NO: 185)], the peptide exchange yield was more than 75%.

In the case of TYPDGTYTGRIF [… (SEQ ID NO: 191)], the peptide exchange yield was 50 to 75%.

On to PYLQDVPRI [… (SEQ ID NO: 183)], for which the peptide exchange yield lay within 50 to 75%.

As to VYQSLSNSL [… (SEQ ID NO: 194)], the peptide exchange yield lay in the range of 50 to 75%.

In turn, IFTDIFHYL [… (SEQ ID NO: 197)] registered a peptide exchange yield of more than 75%.

In turn, KYTSYILAF [… (SEQ ID NO: 162)] displayed a peptide exchange yield of 20 to 49%.

GYKTFFNEF [… (SEQ ID NO: 188)]: the peptide exchange yield was in the range of 50 to 75%.

As for KYLQVVGMF [… (SEQ ID NO: 180)], the peptide exchange yield was in the range of 50 to 75%.

In the case of VFIFKGNEF [… (SEQ ID NO: 172)], the peptide exchange yield is more than 75%.

RYSTFSEIF [… (SEQ ID NO: 192)] displayed a peptide exchange yield of 50 to 75%.

VYPVVLNQI [… (SEQ ID NO: 205)] displayed a peptide exchange yield of 50 to 75%.

LYSDAFKFIVF [… (SEQ ID NO: 207)]: the peptide exchange yield was in the range of 50 to 75%.

The molecule TFITQSPLL [… (SEQ ID NO: 223)] yielded a peptide exchange yield of more than 75%.

The molecule SYVASFFLL [… (SEQ ID NO: 215)] had a peptide exchange yield of 20 to 49%.

As for AYAANVHYL [… (SEQ ID NO: 187)], the peptide exchange yield was more than 75%.

As to SYAPPSEDLFL [… (SEQ ID NO: 213)], the peptide exchange yield was in the range of 20 to 49%.

The molecule RYGDGGSSF [… (SEQ ID NO: 160)] showed a peptide exchange yield of 50 to 75%.

With VFKSEGAYF [… (SEQ ID NO: 211)], the peptide exchange yield is more than 75%.

For the molecule TYLEKIDGF [… (SEQ ID NO: 208)], the peptide exchange yield was more than 75%.

Molecule KFFDDLGDELLF [… (SEQ ID NO: 152)] showed a peptide exchange yield of 20 to 49%.

Take SYAPPSEDLF [… (SEQ ID NO: 212)]: the peptide exchange yield fell in the range of 20 to 49%.

Consider KYIGNLDLL [… (SEQ ID NO: 221)], for which the peptide exchange yield was more than 75%.

For the molecule HYVPATKVF [… (SEQ ID NO: 164)], the peptide exchange yield was 50 to 75%.

VYVPFGGKSMITF [… (SEQ ID NO: 153)] yielded a peptide exchange yield of more than 75%.

Regarding LYSELTETL [… (SEQ ID NO: 190)], the peptide exchange yield lay in the range of 50 to 75%.

Regarding KYPDIVQQF [… (SEQ ID NO: 161)], the peptide exchange yield lay in the range of 50 to 75%.

Consider IYISNSIYF [… (SEQ ID NO: 217)], for which the peptide exchange yield was more than 75%.

Take QYPFHVPLL [… (SEQ ID NO: 170)]: the peptide exchange yield was more than 75%.

For DYIPASGFALF [… (SEQ ID NO: 157)], the peptide exchange yield lay within 50 to 75%.

For EYFTPLLSGQF [… (SEQ ID NO: 165)], the peptide exchange yield lay within 50 to 75%.

As for IYEETRGVL [… (SEQ ID NO: 159)], the peptide exchange yield fell in the range of 50 to 75%.

AFIETPIPLF [… (SEQ ID NO: 209)]: the peptide exchange yield is more than 75%.

Molecule QYLEKYYNL [… (SEQ ID NO: 173)] came in with a peptide exchange yield of more than 75%.

NYSSAVQKF [… (SEQ ID NO: 178)]: the peptide exchange yield is 50 to 75%.

The molecule TYIPVGLGRLL [… (SEQ ID NO: 179)] showed a peptide exchange yield of 50 to 75%.

VFTTSSNIF [… (SEQ ID NO: 186)]: the peptide exchange yield was more than 75%.

On to SYLNHLNNL [… (SEQ ID NO: 199)], for which the peptide exchange yield fell in the range of 50 to 75%.

On to GYIRGSWQF [… (SEQ ID NO: 196)], for which the peptide exchange yield was more than 75%.

VYGVPTPHF [… (SEQ ID NO: 154)] showed a peptide exchange yield of more than 75%.

Turning to EYLSTCSKL [… (SEQ ID NO: 204)], the peptide exchange yield was 50 to 75%.

As for AYAQLGYLLF [… (SEQ ID NO: 182)], the peptide exchange yield was more than 75%.

With RYLTISNLQF [… (SEQ ID NO: 163)], the peptide exchange yield was more than 75%.

Molecule FYINGQYQF [… (SEQ ID NO: 176)] gave a peptide exchange yield of 50 to 75%.

As for NYEDHFPLL [… (SEQ ID NO: 171)], the peptide exchange yield lay in the range of 50 to 75%.

YYMELTKLLL [… (SEQ ID NO: 156)] returned a peptide exchange yield of more than 75%.

Take VYPPYLNYL [… (SEQ ID NO: 181)]: the peptide exchange yield lay within 50 to 75%.

For DYVGFTLKI [… (SEQ ID NO: 198)], the peptide exchange yield was 20 to 49%.

Turning to RYVEGIVSL [… (SEQ ID NO: 202)], the peptide exchange yield fell in the range of 50 to 75%.

SYGTVSQI [SYGTVSQI (SEQ ID NO: 149)]: the peptide exchange yield is more than 75%.

Molecule LYLENNAQTQF [… (SEQ ID NO: 193)] returned a peptide exchange yield of 50 to 75%.

For the molecule RYGFYYVEF [… (SEQ ID NO: 167)], the peptide exchange yield fell in the range of 50 to 75%.

With LYSELNKWSF [… (SEQ ID NO: 218)], the peptide exchange yield was in the range of 50 to 75%.

On to FYVNVKEQF [… (SEQ ID NO: 216)], for which the peptide exchange yield fell in the range of 50 to 75%.

The molecule IYSVGAFENF [… (SEQ ID NO: 184)] gave a peptide exchange yield of more than 75%.

On to SYLKAVFNL [… (SEQ ID NO: 219)], for which the peptide exchange yield was 50 to 75%.

For KYLMELTLI [… (SEQ ID NO: 214)], the peptide exchange yield was 50 to 75%.

Molecule IYAGVGEFSF [… (SEQ ID NO: 210)] displayed a peptide exchange yield of more than 75%.

With GYNPNRVFF [… (SEQ ID NO: 201)], the peptide exchange yield lay in the range of 50 to 75%.

The values are drawn from US20220249633A1.
